Laboratory results: patent US20100266614A1 (AstraZeneca / MedImmune, published 2010)
Residue numbers refer to the chain shown, from its start.

B1: clone 3 (PFFF) (Fab, V domains shown)
VH: QVTLRESGPALVKPTQTLTLTCTFSGFSLSTPGMSVGWIRQPPGKALEWLADIWWDDKKDYNPSLKSRLTISKDTSKNQVVLKVTNMDPADTATYYCARSMITNFYFDVWGQGTTVTVSS
VL: DIQMTQSPSTLSASVGDRVTITCSASSSVGYMHWYQQKPGKAPKLLIYDTFKLASGVPSRFSGSGSGTEFTLTISSLQPDDFATYYCFQGSFYPFTFGGGTKVEIK
notes: also called 3 (n = 3)
B2: clone 23 (AFFY) (Fab, V domains shown)
VH: B1 VH with P32A
VL: B1 VL with F92Y
B3: clone 1 (AFSF) (Fab, V domains shown)
VH: B1 VH with P32A
VL: B1 VL with F51S
B4: clone 2 (AFFG) (Fab, V domains shown)
VH: B1 VH with P32A
VL: B1 VL with F92G

Assays:
[1] = molecular target: T1, RSV F protein (C-terminal truncated F protein secreted from a recombinant baculovirus) (respiratory syncytial virus (RSV), UniProt P03420 26-524); assay: SPR (BIAcore), from the kinetic constants of Table 4
T1 construct: also called F antigen; RSV F antigen
T1 sequence (P03420 26-109, chain 1 of 2): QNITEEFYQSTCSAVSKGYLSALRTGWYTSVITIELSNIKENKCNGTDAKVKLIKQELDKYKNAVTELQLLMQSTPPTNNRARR
T1 sequence (P03420 137-524, chain 2 of 2): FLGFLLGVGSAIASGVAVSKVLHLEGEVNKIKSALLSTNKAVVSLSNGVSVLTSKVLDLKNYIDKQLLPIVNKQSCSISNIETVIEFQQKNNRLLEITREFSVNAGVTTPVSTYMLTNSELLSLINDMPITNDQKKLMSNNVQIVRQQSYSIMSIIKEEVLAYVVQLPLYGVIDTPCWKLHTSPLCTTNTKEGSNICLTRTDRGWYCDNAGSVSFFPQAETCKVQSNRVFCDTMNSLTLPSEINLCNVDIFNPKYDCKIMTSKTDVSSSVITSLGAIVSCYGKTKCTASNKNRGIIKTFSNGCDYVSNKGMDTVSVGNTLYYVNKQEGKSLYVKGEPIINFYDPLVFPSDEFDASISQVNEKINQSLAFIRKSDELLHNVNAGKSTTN

[2] = molecular target: T1, RSV F protein (C-terminal truncated F …); assay: ELISA titration of antibody on 500 ng RSV F antigen; qualitative score from titration curves
[3] = molecular target: T1, RSV F protein (C-terminal truncated F …); assay: SPR (BIAcore), F protein immobilized by EDC/NHS, Fab injected; kon and koff measured separately
[4] = molecular target: T1, RSV F protein (C-terminal truncated F …); assay: SPR (BIAcore), F protein immobilized by EDC/NHS, Fab injected; calculated from the rate constants

Binder	Kd [1] [nM]	Ag Score [2] [arbitrary score 0-4]	koff [3] [s⁻¹]	kon [3] [M⁻¹ s⁻¹]	Ka [4] [M⁻¹]
B1	~0.0123	4	1.35e-06	110000	8.15e+10
B2	~0.0025		3.03e-07	122000	4.03e+11
B3	~0.0143	4	1.62e-06	113000	6.98e+10
B4	~0.0137	4	1.82e-06	133000	7.31e+10
